Assay results published in patent US20240376455.

How the values were obtained:
Assay in all cases: cleavage_in_vitro
[1] = system: T1, LPG10146 (Bifidobacterium thermacidophilum); conditions: PAM SEQ ID 79
T1 sequence: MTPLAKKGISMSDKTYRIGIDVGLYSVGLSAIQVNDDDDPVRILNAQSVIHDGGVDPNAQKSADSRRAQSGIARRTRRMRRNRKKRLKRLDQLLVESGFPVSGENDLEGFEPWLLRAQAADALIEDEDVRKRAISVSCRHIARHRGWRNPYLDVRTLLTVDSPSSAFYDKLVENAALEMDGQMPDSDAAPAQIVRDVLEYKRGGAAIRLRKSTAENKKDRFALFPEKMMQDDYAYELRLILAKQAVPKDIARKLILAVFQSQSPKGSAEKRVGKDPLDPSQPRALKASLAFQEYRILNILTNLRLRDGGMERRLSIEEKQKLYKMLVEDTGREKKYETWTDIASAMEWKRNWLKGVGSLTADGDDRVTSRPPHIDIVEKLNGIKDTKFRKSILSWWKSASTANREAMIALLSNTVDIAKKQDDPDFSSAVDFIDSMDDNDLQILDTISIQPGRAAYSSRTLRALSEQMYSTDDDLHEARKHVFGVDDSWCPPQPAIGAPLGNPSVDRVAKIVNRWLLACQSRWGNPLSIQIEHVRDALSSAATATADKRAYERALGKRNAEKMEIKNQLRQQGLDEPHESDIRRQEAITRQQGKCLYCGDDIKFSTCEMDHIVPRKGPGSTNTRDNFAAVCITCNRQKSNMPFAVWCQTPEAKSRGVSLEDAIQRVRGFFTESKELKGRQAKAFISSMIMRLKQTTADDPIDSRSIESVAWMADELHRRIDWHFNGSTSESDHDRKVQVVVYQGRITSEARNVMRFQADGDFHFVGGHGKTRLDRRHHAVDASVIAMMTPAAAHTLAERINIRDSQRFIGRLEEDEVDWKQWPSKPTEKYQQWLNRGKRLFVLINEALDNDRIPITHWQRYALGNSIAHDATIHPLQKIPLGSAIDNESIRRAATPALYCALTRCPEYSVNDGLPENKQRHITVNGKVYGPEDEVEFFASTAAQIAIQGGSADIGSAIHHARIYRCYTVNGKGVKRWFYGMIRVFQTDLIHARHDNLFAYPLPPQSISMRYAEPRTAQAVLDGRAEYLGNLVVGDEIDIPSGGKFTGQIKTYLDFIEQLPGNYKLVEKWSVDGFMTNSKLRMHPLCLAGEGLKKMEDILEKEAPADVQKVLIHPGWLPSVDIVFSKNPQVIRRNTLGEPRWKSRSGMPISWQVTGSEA

[2] = system: T2, LPG10138 (Bacillus megaterium)
T2 sequence: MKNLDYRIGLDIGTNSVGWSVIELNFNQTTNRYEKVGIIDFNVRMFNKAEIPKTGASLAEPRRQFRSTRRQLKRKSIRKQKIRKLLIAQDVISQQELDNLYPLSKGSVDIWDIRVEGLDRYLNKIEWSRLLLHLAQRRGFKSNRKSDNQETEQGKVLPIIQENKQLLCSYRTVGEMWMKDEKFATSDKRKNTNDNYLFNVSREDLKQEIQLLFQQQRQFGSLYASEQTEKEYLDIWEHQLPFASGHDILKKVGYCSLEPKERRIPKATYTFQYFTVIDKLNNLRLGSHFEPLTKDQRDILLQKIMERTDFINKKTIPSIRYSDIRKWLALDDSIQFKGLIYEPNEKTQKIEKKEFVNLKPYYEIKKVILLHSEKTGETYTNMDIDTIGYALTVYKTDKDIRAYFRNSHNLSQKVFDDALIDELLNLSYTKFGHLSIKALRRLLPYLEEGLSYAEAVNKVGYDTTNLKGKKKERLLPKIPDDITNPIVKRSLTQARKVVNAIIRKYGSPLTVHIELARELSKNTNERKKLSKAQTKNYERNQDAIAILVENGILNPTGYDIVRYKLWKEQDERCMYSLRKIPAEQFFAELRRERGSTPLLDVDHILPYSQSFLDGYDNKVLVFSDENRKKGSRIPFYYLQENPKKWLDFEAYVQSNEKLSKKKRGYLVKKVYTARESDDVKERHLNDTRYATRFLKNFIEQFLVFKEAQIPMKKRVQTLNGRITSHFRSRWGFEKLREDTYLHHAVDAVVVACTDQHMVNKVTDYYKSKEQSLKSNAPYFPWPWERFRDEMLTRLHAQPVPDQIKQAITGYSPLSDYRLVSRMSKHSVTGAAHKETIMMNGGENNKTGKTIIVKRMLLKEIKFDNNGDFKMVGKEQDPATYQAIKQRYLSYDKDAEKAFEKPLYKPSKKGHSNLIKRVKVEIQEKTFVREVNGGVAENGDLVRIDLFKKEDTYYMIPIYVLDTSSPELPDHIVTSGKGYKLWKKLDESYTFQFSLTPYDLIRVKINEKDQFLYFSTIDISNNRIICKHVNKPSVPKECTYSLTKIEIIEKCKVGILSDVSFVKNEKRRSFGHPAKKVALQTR

[3] = system: T3, LPG10136 (Bacillus endophyticus); conditions: PAM NNNNCC
T3 sequence: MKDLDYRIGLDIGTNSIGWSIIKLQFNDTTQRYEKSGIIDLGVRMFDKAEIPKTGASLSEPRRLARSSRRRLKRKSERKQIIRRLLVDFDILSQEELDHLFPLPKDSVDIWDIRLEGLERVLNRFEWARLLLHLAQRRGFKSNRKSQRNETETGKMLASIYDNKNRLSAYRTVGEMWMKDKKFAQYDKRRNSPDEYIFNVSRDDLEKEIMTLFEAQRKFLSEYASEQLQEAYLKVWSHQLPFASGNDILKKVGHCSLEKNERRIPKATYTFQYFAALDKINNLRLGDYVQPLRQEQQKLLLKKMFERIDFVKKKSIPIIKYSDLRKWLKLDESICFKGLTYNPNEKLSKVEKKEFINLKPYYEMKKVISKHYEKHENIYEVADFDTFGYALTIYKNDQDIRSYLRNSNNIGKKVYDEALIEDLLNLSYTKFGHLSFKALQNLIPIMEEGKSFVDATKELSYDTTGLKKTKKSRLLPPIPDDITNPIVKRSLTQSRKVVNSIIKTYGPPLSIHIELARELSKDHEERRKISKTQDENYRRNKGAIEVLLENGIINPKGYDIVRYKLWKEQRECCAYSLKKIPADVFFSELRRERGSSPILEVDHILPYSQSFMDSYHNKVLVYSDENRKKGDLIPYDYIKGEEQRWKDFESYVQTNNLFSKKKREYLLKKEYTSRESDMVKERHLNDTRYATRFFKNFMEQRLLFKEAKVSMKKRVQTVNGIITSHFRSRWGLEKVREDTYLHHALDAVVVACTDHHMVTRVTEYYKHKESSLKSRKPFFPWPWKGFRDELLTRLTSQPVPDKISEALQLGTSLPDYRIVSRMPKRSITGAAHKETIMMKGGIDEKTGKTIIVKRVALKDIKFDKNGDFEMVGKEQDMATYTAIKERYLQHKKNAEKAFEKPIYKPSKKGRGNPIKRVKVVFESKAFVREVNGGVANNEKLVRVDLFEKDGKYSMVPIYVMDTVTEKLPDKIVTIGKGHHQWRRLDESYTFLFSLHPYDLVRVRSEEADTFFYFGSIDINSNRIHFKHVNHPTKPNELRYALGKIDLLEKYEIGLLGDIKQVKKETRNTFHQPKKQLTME

Work on “GCUGAGAAUUAGCAUCCUUCAAAGGAAGAAGCUAAUUCUCAGUAAGUACAGCAAUUAAUAGCUGUAUCUGAAUGCUAAGCGGUUAGCCGCAGGGGAGAGCUUCGGCUCUCCCCGUUCUUUU / GATATAGACGTTGTGGCTGTTGTAGTAGGAAACC / GGTTTCCTACTACAACAGCCACAACGTCTATATC [LPG10146 sgRNA L2 ; Library 2 target AGGAAACC]” yielded an activity (% target strand cleaved) [1] of 48.9.
For “GCUGAGAAUUAGCAUCCUUCAAAGGAAGAAGCUAAUUCUCAGUAAGUACAGCAAUUAAUAGCUGUAUCUGAAUGCUAAGCGGUUAGCCGCAGGGGAGAGCUUCGGCUCUCCCCGUUCUUUU / GATATAGACGTTGTGGCTGTTGTAGTGAGTAACC / GGTTACTCACTACAACAGCCACAACGTCTATATC [LPG10146 sgRNA L2 ; Library 2 target GAGTAACC]”, the activity (% target strand cleaved) [1] was 57.7.
With “GCUGAGAAUUAGCAUCCUUCAAAGGAAGAAGCUAAUUCUCAGUAAGUACAGCAAUUAAUAGCUGUAUCUGAAUGCUAAGCGGUUAGCCGCAGGGGAGAGCUUCGGCUCUCCCCGUUCUUUU / GGACAGCAGCTTCCTATATCTCGTACGGATAACC / GGTTATCCGTACGAGATATAGGAAGCTGCTGTCC [LPG10146 sgRNA L1 ; Library 1 target GGATAACC]” the activity (% target strand cleaved) [1] was 0.
“GUCAUAGUCCCAUCAUAUCCAUUGCAAAGGCAAUGGAUAUGAUGUUUCUAUGAUAAGGGCUCUCUAAGAGAGACCUGUGGCGUUGGGGAUCGCCUGCCCGUUUCGACGGGUGUCUCCCCAUUU / GATATAGACGTTGTGGCTGTTGTAGTAGGAATTC / GAATTCCTACTACAACAGCCACAACGTCTATATC [LPG10138 sgRNA L2 ; Library 2 target AGGAATTC]” was tested, and the activity (% target strand cleaved) ([2]; PAM context AGGAATTC) was 0.
“GUCAUAGUCCCAUCAUAUCCAUUGCAAAGGCAAUGGAUAUGAUGUUUCUAUGAUAAGGGCUCUCUAAGAGAGACCUGUGGCGUUGGGGAUCGCCUGCCCGUUUCGACGGGUGUCUCCCCAUUU / GATATAGACGTTGTGGCTGTTGTAGTAGGACTTC / GAAGTCCTACTACAACAGCCACAACGTCTATATC [LPG10138 sgRNA L2 ; Library 2 target AGGACTTC]” was tested, and the activity (% target strand cleaved) ([2]; PAM SEQ ID 75) was 18.
For “GUCAUAGUCCCAUCAUAUCCAUUGCAAAGGCAAUGGAUAUGAUGUUUCUAUGAUAAGGGCUCUCUAAGAGAGACCUGUGGCGUUGGGGAUCGCCUGCCCGUUUCGACGGGUGUCUCCCCAUUU / GGACAGCAGCTTCCTATATCTCGTACAGGACTTC / GAAGTCCTGTACGAGATATAGGAAGCTGCTGTCC [LPG10138 sgRNA L1 ; Library 1 target AGGACTTC]”, the activity (% target strand cleaved) ([2]; PAM SEQ ID 75) was 5.5.
For “GUCAUAGUUCCACUAAAGCCAUUAAAGAAUGGCUUUGAUGUUUCUAUGAUAAGGGUUUCGACCCGUGGCGUUGGGGAUCGCCUGCCCAUUUCGAUGGGCGUCUCCCCAUUU / GATATAGACGTTGTGGCTGTTGTAGTAGGACCTC / GAGGTCCTACTACAACAGCCACAACGTCTATATC [LPG10136 sgRNA L2 ; Library 2 target AGGACCTC]”, the activity (% target strand cleaved) ([3]; 37C 120 min) was 30.9.
“GUCAUAGUUCCACUAAAGCCAUUAAAGAAUGGCUUUGAUGUUUCUAUGAUAAGGGUUUCGACCCGUGGCGUUGGGGAUCGCCUGCCCAUUUCGAUGGGCGUCUCCCCAUUU / GATATAGACGTTGTGGCTGTTGTAGTAGGACTTC / GAAGTCCTACTACAACAGCCACAACGTCTATATC [LPG10136 sgRNA L2 ; Library 2 target AGGACTTC]” was tested, and the activity (% target strand cleaved) ([3]; suboptimal PAM context) was 11.3.
In the case of “GUCAUAGUUCCACUAAAGCCAUUAAAGAAUGGCUUUGAUGUUUCUAUGAUAAGGGUUUCGACCCGUGGCGUUGGGGAUCGCCUGCCCAUUUCGAUGGGCGUCUCCCCAUUU / GGACAGCAGCTTCCTATATCTCGTACAGGACCTC / GAGGTCCTGTACGAGATATAGGAAGCTGCTGTCC [LPG10136 sgRNA L1 ; Library 1 target AGGACCTC]”, the activity (% target strand cleaved) ([3]; 37C 120 min) is reported as 5.
